Patent publication US20220332804A1 (CSL INNOVATION, published 2022)
Where a chain is given by its changes, count along the chain named.

What was measured:
Assay in all cases: SPR, antibody captured, C2 as analyte;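 also: biacore SPR at 37 °C, anti-C2 mAbs captured via goat anti-human IgG on CM5 chips, double-referenced sensorgrams fit to a 1:1 kinetic or steady-state model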
[1] = biological target: T1, human C2 G530A (human, UniProt P06681 21-752)
T1 sequence: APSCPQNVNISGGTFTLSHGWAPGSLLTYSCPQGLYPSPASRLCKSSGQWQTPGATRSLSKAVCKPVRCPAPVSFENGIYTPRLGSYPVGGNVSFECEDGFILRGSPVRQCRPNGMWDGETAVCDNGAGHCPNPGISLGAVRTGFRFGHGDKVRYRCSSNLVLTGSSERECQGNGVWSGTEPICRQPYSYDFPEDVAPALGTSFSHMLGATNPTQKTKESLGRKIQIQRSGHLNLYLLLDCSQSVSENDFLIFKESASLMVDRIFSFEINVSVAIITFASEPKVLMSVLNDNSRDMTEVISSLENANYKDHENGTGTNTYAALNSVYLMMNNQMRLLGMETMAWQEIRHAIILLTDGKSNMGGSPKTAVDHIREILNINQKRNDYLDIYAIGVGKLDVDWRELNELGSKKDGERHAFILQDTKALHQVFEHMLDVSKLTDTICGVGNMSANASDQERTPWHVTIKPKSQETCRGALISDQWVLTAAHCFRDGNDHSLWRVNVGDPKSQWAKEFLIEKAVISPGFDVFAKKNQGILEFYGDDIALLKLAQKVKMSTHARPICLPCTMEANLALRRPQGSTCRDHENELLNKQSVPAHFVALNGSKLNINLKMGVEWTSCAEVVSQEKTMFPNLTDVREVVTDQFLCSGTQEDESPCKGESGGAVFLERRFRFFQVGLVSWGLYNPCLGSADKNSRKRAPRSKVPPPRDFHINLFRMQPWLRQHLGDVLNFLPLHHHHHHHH

[2] = biological target: T2, human C2 I438A (human, UniProt P06681 21-752)
T2 sequence: T1 sequence with I418A, A510G

[3] = biological target: T3, human C2 N471A (human, UniProt P06681 21-752)
T3 sequence: T1 sequence with N451A, A510G

[4] = biological target: T4, human C2 E324A (human, UniProt P06681 21-752)
T4 sequence: T1 sequence with E304A, A510G

B1: RF16-226 (antibody, human IgG4 S228P, lambda)
heavy: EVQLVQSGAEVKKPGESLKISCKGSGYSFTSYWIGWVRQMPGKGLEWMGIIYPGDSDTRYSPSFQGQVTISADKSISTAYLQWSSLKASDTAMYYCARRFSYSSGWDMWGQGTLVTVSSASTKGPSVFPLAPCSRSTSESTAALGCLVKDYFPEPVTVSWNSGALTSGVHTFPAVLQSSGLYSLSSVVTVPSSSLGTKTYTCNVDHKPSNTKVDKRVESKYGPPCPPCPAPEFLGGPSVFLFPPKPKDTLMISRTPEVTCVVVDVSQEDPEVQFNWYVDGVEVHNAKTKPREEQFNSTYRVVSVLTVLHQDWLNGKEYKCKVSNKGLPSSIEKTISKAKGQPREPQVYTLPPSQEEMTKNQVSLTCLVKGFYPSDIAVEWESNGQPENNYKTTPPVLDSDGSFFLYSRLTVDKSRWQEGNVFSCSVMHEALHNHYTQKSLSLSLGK
light: SYELTQPPSVSVSPGQTARITCSGDALTSKYVAWYQQKSGLAPLLVIYEDTRRPSGIPAKFSGSSSGSVATLTISGAHGDDEADYYCYSTDASGHQRVFGGGTKLTVLSQPKAAPSVTLFPPSSEELQANKATLVCLISDFYPGAVTVAWKADGSPVKAGVETTKPSKQSNNKYAASSYLSLTPEQWKSHRSYSCQVTHEGSTVEKTVAPTECS
notes: pH-dependent anti-C2 antibody from a phage display library; also called WT
For B1, the Kd [1] was 16.7 nM, the Kd [2] was 8.7 nM and the Kd [3] was 9.7 nM. For the same binder, the Kd [4] was 12.2 nM.
